Measured values: article PMC8924211 (Nature Communications, 2022)

Legend:
Experiment in all cases: AlphaScreen or HTRF; saturation binding: HEK293 cells transfected with SNAP-tagged receptor (WT or mutant) and labelled with SNAP-Lumi4-Tb, incubated with increasing concentrations of galanin-A2 in the presence or absence of 100 uM unlabeled galanin, 1 h at room temperature; HTRF ratio 665 nm/620 nm
Conditions in all cases: one partner purified
[1] = target: T1, N-terminal-SNAP-tagged GAL2R, wild type (human, UniProt O43603 1-387, Lumi4-Tb on the SNAP tag)
T1 construct: also called SNAP-GAL2R; GAL2R WT; source: HEK293, transfected, on cells; not shown: SNAP tag, N-terminal, kept
T1 sequence (looked up): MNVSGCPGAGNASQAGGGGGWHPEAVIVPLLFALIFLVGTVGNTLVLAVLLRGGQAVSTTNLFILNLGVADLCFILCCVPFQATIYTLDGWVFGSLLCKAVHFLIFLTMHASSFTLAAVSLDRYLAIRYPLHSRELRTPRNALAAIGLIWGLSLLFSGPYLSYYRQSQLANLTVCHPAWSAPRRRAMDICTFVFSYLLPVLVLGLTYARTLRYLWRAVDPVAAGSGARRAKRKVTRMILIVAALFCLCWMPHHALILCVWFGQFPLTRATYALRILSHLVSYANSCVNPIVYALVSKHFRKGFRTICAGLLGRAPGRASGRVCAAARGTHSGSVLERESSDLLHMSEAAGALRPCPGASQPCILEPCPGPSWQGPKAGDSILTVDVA

SNAP-GAL2R I256^6.55A = target: T2, SNAP-GAL2R I256^6.55A (human, UniProt O43603 1-387, I256^6.55A, Lumi4-Tb on the SNAP tag)
T2 construct: also called I256A; source: HEK293, transfected, on cells; not shown: SNAP tag, N-terminal, kept
T2 sequence (looked up): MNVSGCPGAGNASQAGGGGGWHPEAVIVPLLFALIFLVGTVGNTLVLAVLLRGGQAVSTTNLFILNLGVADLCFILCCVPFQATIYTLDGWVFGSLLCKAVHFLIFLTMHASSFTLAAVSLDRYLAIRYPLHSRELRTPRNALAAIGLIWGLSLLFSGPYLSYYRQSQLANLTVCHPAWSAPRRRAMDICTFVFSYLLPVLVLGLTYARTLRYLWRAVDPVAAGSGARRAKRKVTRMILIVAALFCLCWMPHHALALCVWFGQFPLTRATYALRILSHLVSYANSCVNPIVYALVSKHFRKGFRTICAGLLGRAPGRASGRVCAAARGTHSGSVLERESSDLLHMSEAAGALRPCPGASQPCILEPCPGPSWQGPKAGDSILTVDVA

SNAP-GAL2R H252^6.51A = target: T3, SNAP-GAL2R H252^6.51A (human, UniProt O43603 1-387, H252^6.51A, Lumi4-Tb on the SNAP tag)
T3 construct: also called H252A; source: HEK293, transfected, on cells; not shown: SNAP tag, N-terminal, kept
T3 sequence (looked up): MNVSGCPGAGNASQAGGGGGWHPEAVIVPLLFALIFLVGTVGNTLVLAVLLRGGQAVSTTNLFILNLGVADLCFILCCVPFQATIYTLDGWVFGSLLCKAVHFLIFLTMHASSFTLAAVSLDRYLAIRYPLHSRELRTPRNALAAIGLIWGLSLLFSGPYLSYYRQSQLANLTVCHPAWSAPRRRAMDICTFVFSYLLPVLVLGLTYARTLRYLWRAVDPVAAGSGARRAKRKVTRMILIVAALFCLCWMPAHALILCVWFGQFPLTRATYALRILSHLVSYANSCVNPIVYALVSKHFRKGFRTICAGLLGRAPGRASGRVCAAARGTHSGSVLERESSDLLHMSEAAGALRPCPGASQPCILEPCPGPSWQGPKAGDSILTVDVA

SNAP-GAL2R R274^7.35A = target: T4, SNAP-GAL2R R274^7.35A (human, UniProt O43603 1-387, R274^7.35A, Lumi4-Tb on the SNAP tag)
T4 construct: also called R274A; source: HEK293, transfected, on cells; not shown: SNAP tag, N-terminal, kept
T4 sequence (looked up): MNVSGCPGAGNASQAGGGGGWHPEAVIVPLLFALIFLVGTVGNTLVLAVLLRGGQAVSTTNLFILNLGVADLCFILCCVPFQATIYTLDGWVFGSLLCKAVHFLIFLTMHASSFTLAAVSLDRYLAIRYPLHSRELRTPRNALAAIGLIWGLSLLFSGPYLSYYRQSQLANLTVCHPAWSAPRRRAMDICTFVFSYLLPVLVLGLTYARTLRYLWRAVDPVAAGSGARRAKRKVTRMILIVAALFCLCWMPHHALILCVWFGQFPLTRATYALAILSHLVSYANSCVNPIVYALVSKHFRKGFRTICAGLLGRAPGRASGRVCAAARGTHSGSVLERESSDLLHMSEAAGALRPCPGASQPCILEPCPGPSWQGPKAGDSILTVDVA

B1: galanin-A2 (full-length galanin labeled with the dye A2 on an additional cysteine at the C-terminal end) (peptide)
peptide: GWTLNSAGYLLGPHAVGNHRSFSDKNGLTSC
modifications: dye A2 on the additional C-terminal cysteine
notes: numbers count on: the mature protein; additional cysteine at the C-terminal end of the peptide, carries the dye A2; source: synthetic peptide (synthesized by Vazyme, China)
B1 gave a Kd [1] of 21.7 nM, a Kd (SNAP-GAL2R I256^6.55A) of 221 nM and a Kd (SNAP-GAL2R H252^6.51A) of 246 nM. The Kd (SNAP-GAL2R R274^7.35A) was 553 nM.
